# Results from US8114968 (DYAX, dated 2012).
# Legend:
# human MMP-12 [1] = target: T1, human MMP-12 (human, UniProt P39900 106-470, limits assumed); test: cell-based or functional assay
# human MMP-12 [2] = target: T1, human MMP-12; test: BIACORE, coated Fab
# murine MMP-12 [3] = target: T2, murine MMP-12 (mouse, UniProt P34960 110-473, limits assumed); test: BIACORE, coated Fab
# T2 construct: also called mouse MMP12; mMMP12
# human MMP-12 [4] = target: T1, human MMP-12; test: cell-based or functional assay; remark: listed apart in the source
# murine MMP-12 [5] = target: T2, murine MMP-12; test: cell-based or functional assay
# T1 sequence (P39900 106-470 limits assumed): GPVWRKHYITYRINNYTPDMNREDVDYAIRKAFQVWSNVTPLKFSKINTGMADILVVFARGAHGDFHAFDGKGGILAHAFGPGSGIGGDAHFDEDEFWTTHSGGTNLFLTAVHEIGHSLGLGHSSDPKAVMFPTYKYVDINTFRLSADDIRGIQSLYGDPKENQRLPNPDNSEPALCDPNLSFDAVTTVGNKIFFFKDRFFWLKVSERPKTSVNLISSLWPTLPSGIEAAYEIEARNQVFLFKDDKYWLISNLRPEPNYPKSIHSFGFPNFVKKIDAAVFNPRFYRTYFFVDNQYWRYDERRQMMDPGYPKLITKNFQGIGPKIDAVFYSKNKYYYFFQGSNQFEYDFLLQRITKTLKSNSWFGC
# T2 sequence (P34960 110-473 limits assumed): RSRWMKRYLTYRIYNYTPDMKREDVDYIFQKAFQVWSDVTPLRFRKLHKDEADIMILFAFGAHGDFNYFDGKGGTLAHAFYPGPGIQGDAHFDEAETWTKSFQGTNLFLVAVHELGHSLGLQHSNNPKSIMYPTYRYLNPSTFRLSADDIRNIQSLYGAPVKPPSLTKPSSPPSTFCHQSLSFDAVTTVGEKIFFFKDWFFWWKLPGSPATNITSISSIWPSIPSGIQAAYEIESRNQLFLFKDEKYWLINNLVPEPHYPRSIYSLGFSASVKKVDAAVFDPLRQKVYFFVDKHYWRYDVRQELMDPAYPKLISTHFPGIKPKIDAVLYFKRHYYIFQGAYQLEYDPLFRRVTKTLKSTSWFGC
% of activity left with 100 nM in assay 04 Oct. 2006 (human MMP-12 [1]) [%],Kd (human MMP-12 [2]) [nM],koff (murine MMP-12 [3]) [s⁻¹],IC50hu (human MMP-12 [4]) [nM],IC50 m (murine MMP-12 [5]),Binder
55.5,–,–,–,–,"539B-M0007-H06 (Fab, V domains shown) VH: EVQLLESGGGLVQPGGSLRLSCAASGFTFSHYWMHWVRQAPGKGLEWVSSISSSGGMTYYADSVKGRFTISRDNSKNTLYLQMNSLRAEDTAVYYCTTADYGYYYGMDVWGQGTTVTVSS VL: DIQMTQSPGTLSLSSGERATLSCRASQSVSSNYLAWYQQKRGQAPRLLIYGASSRATGVPGRFSGSGSGTDFTLTISRLEPEDFAVYYCQQYGSSPRTFGQGTKLEIK"
84.1,–,–,–,–,"539B-M0015-F02 (Fab, V domains shown) VH: EVQLLESGGGLVQPGGSLRLSCAASGFTFSRYGMTWVRQAPGKGLEWVSGISPSGGNTWYADSVKGRFTISRDNSKNTLYLQMNSLRAEDTAVYYCTSHDYGDHYGMDVWGQGTLVTVSS VL: not shown"
12.2,–,–,–,–,"539B-M0011-H11 Fab (Fab, V domains shown) VH: EVQLLESGGGLVQPGGSLRLSCAASGFTFSWYNMWWVRQAPGKGLEWVSYIYPSGGNTGYADSVKGRFTISRDNSKNTLYLQMNSLRAEDTAVYYCAVFEYSSSGPQGYWGQGTLVTVSS VL: QSALTQPPSVSVAPGQTARITCGGNNIGTKSVHWYQQKSGQAPVLVVYDNSDRPSGIPERFSGSNSGNTATLTISRVEAGDEADYYCQVWDNSIDHVVFGGGTKLTVL"
4.6,17.7,0.004,12.1,< 10 nM (not printed; inferred),"539B-M0008-H09 Fab (Fab, V domains shown, N-glycosylation site in LC CDR1; also called M08H09) VH: EVQLLESGGGLVQPGGSLRLSCAASGFTFSDYNMHWVRQAPGKGLEWVSYIGPSGGYTHYADSVKGRFTISRDNSKNTLYLQMNSLRAEDTAVYYCAKDIRGAYSSGLFDYWGRGTLVTVSS VL: DIQMTQSPSSLSASVGDRVTITCRANQSIYTYLNWYQQKPGKAPELLIYAASSLQSGVPSRFSGSGSGTDFTLTISSLQPEDFATYYCQQAGIFGQGTKLEIK"
–,–,–,3,< 10 nM (not printed; inferred),"539B-M0065-G03 (Fab, V domains shown) VH: EVQLLESGGGLVQPGGSLRLSCAASGFTFSWYGMGWVRQAPGKGLEWVSVIVSSGGFTQYADSVKGRFTISRDNSKNTLYLQMNSLRAEDTAVYYCAKDIRGAYSSGLFDYWGRGTLVTVSS VL: DIQMTQSPSSLSASVGDRVTITCRANQSIYTYLNWYQQKPGKAPELLIYAASSLQSGVPSRFSGSGSGTDFTLTISSLQPEDFATYYCQQAGIFGQGTKLEIK"
–,–,–,2.4,< 10 nM (not printed; inferred),"539B-M0071-D09 (Fab, V domains shown) VH: EVQLLESGGGLVQPGGSLRLSCAASGFTFSPYWMHWVRQAPGKGLEWVSGISSSGGDTLYADSVKGRFTISRDNSKNTLYLQMNSLRAEDTAVYYCAKDIRGAYSSGLFDYWGRGTLVTVSS VL: DIQMTQSPSSLSASVGDRVTITCRANQSIYTYLNWYQQKPGKAPELLIYAASSLQSGVPSRFSGSGSGTDFTLTISSLQPEDFATYYCQQAGIFGQGTKLEIK"
–,–,–,1.4,< 10 nM (not printed; inferred),"539B-M0065-E12 (Fab, V domains shown) VH: EVQLLESGGGLVQPGGSLRLSCAASGFTFSWYNMHWVRQAPGKGLEWVSGISPSGGNTMYADSVKGRFTISRDNSKNTLYLQMNSLRAEDTAVYYCAKDIRGAYSSGLFDYWGRGTLVTVSS VL: DIQMTQSPSSLSASVGDRVTITCRANQSIYTYLNWYQQKPGKAPELLIYAASSLQSGVPSRFSGSGSGTDFTLTISSLQPEDFATYYCQQAGIFGQGTKLEIK"
–,–,–,2.3,< 10 nM (not printed; inferred),"539B-M0069-D10 (Fab, V domains shown) VH: EVQLLESGGGLVQPGGSLRLSCAASGFTFSLYHMHWVRQAPGKGLEWVSGIGPSGGWTIYADSVKGRFTISRDNSKNTLYLQMNSLRAEDTAVYYCAKDIRGAYSSGLFDYWGRGTLVTVSS VL: DIQMTQSPSSLSASVGDRVTITCRANQSIYTYLNWYQQKPGKAPELLIYAASSLQSGVPSRFSGSGSGTDFTLTISSLQPEDFATYYCQQAGIFGQGTKLEIK"
–,0.203,0.00025,0.7,< 10 nM (not printed; inferred),"539B-M0067-F06 (Fab, V domains shown) VH: EVQLLESGGGLVQPGGSLRLSCAASGFTFSWYNMSWVRQAPGKGLEWVSRISPSGGDTGYADSVKGRFTISRDNSKNTLYLQMNSLRAEDTAVYYCAKDIRGAYSSGLFDYWGRGTLVTVSS VL: DIQMTQSPSSLSASVGDRVTITCRANQSIYTYLNWYQQKPGKAPELLIYAASSLQSGVPSRFSGSGSGTDFTLTISSLQPEDFATYYCQQAGIFGQGTKLEIK"
–,1.58,0.00654,0.8,> 10 nM (not printed; inferred),"539B-M0063-G01 (Fab, V domains shown) VH: EVQLLESGGGLVQPGGSLRLSCAASGFTFSWYWMVWVRQAPGKGLEWVSSIGPSGGDTYYADSVKGRFTISRDNSKNTLYLQMNSLRAEDTAVYYCAKDIRGAYSSGLFDYWGRGTLVTVSS VL: DIQMTQSPSSLSASVGDRVTITCRANQSIYTYLNWYQQKPGKAPELLIYAASSLQSGVPSRFSGSGSGTDFTLTISSLQPEDFATYYCQQAGIFGQGTKLEIK"
–,2.19,–,0.7,–,"539B-M0065-H05 (Fab, V domains shown) VH: EVQLLESGGGLVQPGGSLRLSCAASGFTFSYYGMGWVRQAPGKGLEWVSVISSSGGFTFYADSVKGRFTISRDNSKNTLYLQMNSLRAEDTAVYYCAKDIRGAYSSGLFDYWGRGTLVTVSS VL: DIQMTQSPSSLSASVGDRVTITCRANQSIYTYLNWYQQKPGKAPELLIYAASSLQSGVPSRFSGSGSGTDFTLTISSLQPEDFATYYCQQAGIFGQGTKLEIK"
–,2.29,0.002,1,< 10 nM (not printed; inferred),"539B-M0063-C07 (Fab, V domains shown) VH: EVQLLESGGGLVQPGGSLRLSCAASGFTFSPYWMSWVRQAPGKGLEWVSGISPSGGITFYADSVKGRFTISRDNSKNTLYLQMNSLRAEDTAVYYCAKDIRGAYSSGLFDYWGRGTLVTVSS VL: DIQMTQSPSSLSASVGDRVTITCRANQSIYTYLNWYQQKPGKAPELLIYAASSLQSGVPSRFSGSGSGTDFTLTISSLQPEDFATYYCQQAGIFGQGTKLEIK"
–,0.12,0.00311,0.7,> 10 nM (not printed; inferred),"539B-M0063-B11 (Fab, V domains shown) VH: EVQLLESGGGLVQPGGSLRLSCAASGFTFSPYWMHWVRQAPGKGLEWVSGIGPSGGLTFYADSVKGRFTISRDNSKNTLYLQMNSLRAEDTAVYYCAKDIRGAYSSGLFDYWGRGTLVTVSS VL: DIQMTQSPSSLSASVGDRVTITCRANQSIYTYLNWYQQKPGKAPELLIYAASSLQSGVPSRFSGSGSGTDFTLTISSLQPEDFATYYCQQAGIFGQGTKLEIK"
–,6.97,–,1.6,~10 nM (not printed; inferred),"539B-M0069-C02 (Fab, V domains shown) VH: EVQLLESGGGLVQPGGSLRLSCAASGFTFSYYNMHWVRQAPGKGLEWVSGIGPSGGGTLYADSVKGRFTISRDNSKNTLYLQMNSLRAEDTAVYYCAKDIRGAYSSGLFDYWGRGTLVTVSS VL: DIQMTQSPSSLSASVGDRVTITCRANQSIYTYLNWYQQKPGKAPELLIYAASSLQSGVPSRFSGSGSGTDFTLTISSLQPEDFATYYCQQAGIFGQGTKLEIK"
–,1.03,–,0.2,< 10 nM (not printed; inferred),"539B-M0071-H03 (Fab, V domains shown) VH: EVQLLESGGGLVQPGGSLRLSCAASGFTFSPYWMHWVRQAPGKGLEWVSGIGPSGGPTFYADSIKGRFTISRDNSKNTLYLQMNSLRAEDTAVYYCAKDIRGAYSSGLFDYWGRGTLVTVSS VL: DIQMTQSPSSLSASVGDRVTITCRANQSIYTYLNWYQQKPGKAPELLIYAASSLQSGVPSRFSGSGSGTDFTLTISSLQPEDFATYYCQQAGIFGQGTKLEIK"
–,1.1,0.01,0.3,> 10 nM (not printed; inferred),"539B-M0071-A01 (Fab, V domains shown) VH: EVQLLESGGGLVQPGGSLRLSCAASGFTFSEYWMTWVRQAPGKGLEWVSGISPSGGMTFYADSVKGRFTISRDNSKNTLYLQMNSLRAEDTAVYYCAKDIRGAYSSGLFDYWGRGTLVTVSS VL: DIQMTQSPSSLSASVGDRVTITCRANQSIYTYLNWYQQKPGKAPELLIYAASSLQSGVPSRFSGSGSGTDFTLTISSLQPEDFATYYCQQAGIFGQGTKLEIK"
–,0.171,0.0025,0.7,> 10 nM (not printed; inferred),"539B-M0063-B01 (Fab, V domains shown) VH: EVQLLESGGGLVQPGGSLRLSCAASGFTFSWYWMGWVRQAPGKGLEWVSSISPSGGYTFYADSVKGRFTISRDNSKNTLYLQMNSLRAEDTAVYYCAKDIRGAYSSGLFDYWGRGTLVTVSS VL: DIQMTQSPSSLSASVGDRVTITCRANQSIYTYLNWYQQKPGKAPELLIYAASSLQSGVPSRFSGSGSGTDFTLTISSLQPEDFATYYCQQAGIFGQGTKLEIK"
–,0.62,–,0.7,< 10 nM (not printed; inferred),"539B-M0067-B06 (Fab, V domains shown) VH: EVQLLESGGGLVQPGGSLRLSCAASGFTFSWYWMHWVRQAPGKGLEWVSGIVSSGGTTIYADSVKGRFTISRDNSKNTLYLQMNSLRAEDTAVYYCAKDIRGAYSSGLFDYWGRGTLVTVSS VL: DIQMTQSPSSLSASVGDRVTITCRANQSIYTYLNWYQQKPGKAPELLIYAASSLQSGVPSRFSGSGSGTDFTLTISSLQPEDFATYYCQQAGIFGQGTKLEIK"
